The assay addresses APOBEC3G (A3G) protein, Q9HC16. Put plainly: AFM topographic imaging (protein volume); A3G mixed 2:1 with hybrid DNA substrate (418 bp duplex with 69 nt ssDNA overhang, deaminase specific or nonspecific) in 50 mM HEPES pH 7.5, 100 mM NaCl, 5 mM MgCl2, 1 mM DTT, 15 min at 37 °C; deposited on APS-mica, imaged in air; protein volume converted to mass; stoichiometry of A3G on the ssDNA. Conditions: remark: other sources report otherwise.

B1: APOBEC3G (A3G) protein, Q9HC16 1-384 (enzyme)
chain: MKPHFRNTVERMYRDTFSYNFYNRPILSRRNTVWLCYEVKTKGPSRPPLDAKIFRGQVYSELKYHPEMRFFHWFSKWRKLHRDQEYEVTWYISWSPCTKCTRDMATFLAEDPKVTLTIFVARLYYFWDPDYQEALRSLCQKRDGPRATMKIMNYDEFQHCWSKFVYSQRELFEPWNNLPKYYILLHIMLGEILRHSMDPPTFTFNFNNEPWVRGRHETYLCYEVERMHNDTWVLLNQRRGFLCNQAPHKHGFLEGRHAELCFLDVIPFWKLDLDQDYRVTCFTSWSPCFSCAQEMAKFISKNKHVSLCIFTARIYDDQGRCQEGLRTLAEAGAKISIMTYSEFKHCWDTFVDHQGCPFQPWDGLDEHSQDLSGRLRAILQNQEN
What is called stoichiometry N is the number of molecules, sites or subunits per partner or assembly. B1 registered a stoichiometry N of 2.

The values are drawn from PMC4621513.
